Experimental data from the supplement of paper PMC10126150.
± gives the standard deviation of the averaged measurements.

System: ATP
Experiment: switch fluorescence ratio, 500 uM ATP over buffer (Cy3 cluster intensity, sum of 5 cycles each) (fold (ratio)); higher = stronger signal-on switching upon ATP binding; sequences stand for … in TCGTCGGCAGCGTCAGATGTGTATAAGAGACAGTTTTTTTTTTTTTTTTTTTTTTTTT…TC
Conditions: aptamer strand: ATP DNA aptamer (quencher-CACCTGGGGGAGTATTGCGGAGGAAGG + anchor), 100 nM annealed; ATP concentration: 500 uM
Procedure, shortened: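 Switching-strand clusters labelled with Cy3 on a modified Illumina MiSeq flow-cell were annealed to 100 nM quencher-labelled ATP aptamer, imaged in selection buffer, and re-imaged after 15 min with 500 uM ATP at 22 °C. This was done over five cycles with NaOH stripping and re-annealing in between. The fluorescence ratio is summed target-cycle over summed buffer-cycle Cy3 intensity per cluster, averaged per switch-domain sequence, excluding clusters outside 100-1000 RFU.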
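Note: ATP exposure 15 min at 22 °C before imaging.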

Row | Sequence | switch fluorescence ratio
1 | AAGTTCGATG | 0.976 ± 0.025
2 | TACCGTATTT | 1.04 ± 0.027
3 | AATCTGGGTG | 1.11 ± 0.034
4 | ACAGGCCAGG | 1.23 ± 0.082
5 | AGGGATACCG | 1.01 ± 0.066
6 | TAATGGAGTT | 1 ± 0.029
7 | GAGCTGGGCG | 0.969 ± 0.13
8 | TTGAAAGGGC | 1.02 ± 0.019
9 | ATTTATTATG | 0.989 ± 0.038
10 | AAAGGGGCGG | 1.02 ± 0.022
11 | GGTTTAAAAA | 0.969 ± 0.036
12 | CCGGTCTAGC | 1.14 ± 0.041
13 | AGCTTTTTTG | 1.024 ± 0.0039
14 | ACGACTGTTA | 1.04 ± 0.02
15 | ATTCATAGGC | 1 ± 0.052
16 | CATGCGGGGG | 1.01 ± 0.013
17 | GCTGGGATTG | 1.01 ± 0.035
18 | GTCTATACAT | 0.973 ± 0.028
19 | CAGGTGGTGG | 1.02 ± 0.02
20 | GCGATACGCA | 1.07 ± 0.041
21 | TGGGTAGGAT | 1.02 ± 0.018
22 | TTGTTCATAC | 1.27 ± 0.37
23 | ACTTTCTGGA | 1 ± 0.024
24 | TACCCAGATT | 1.66 ± 0.98
25 | AAGTTTGGAT | 0.9919 ± 0.005

Row | Sequence | switch fluorescence ratio
26 | GCGCCTTGTG | 0.988 ± 0.018
27 | TAATGGGTTT | 0.999 ± 0.062
28 | TCATAAGTTG | 0.9957 ± 0.0042
29 | CACTTAGGCT | 1.01 ± 0.011
30 | TTTTGAAATG | 0.965 ± 0.017
31 | TACTCCGTTT | 2.15 ± 0.34
32 | TGGGTTTAGC | 1 ± 0.043
33 | TATGTTAGTC | 0.988 ± 0.054
34 | GGTGTTTAAG | 0.9717 ± 0.0067
35 | GATCTATGTC | 0.989 ± 0.066
36 | ATAGACGGTT | 1.02 ± 0.048
37 | GACGAAGTTT | 1.32 ± 0.7
38 | GTTAGGATGG | 1.01 ± 0.044
39 | GTCACTTATT | 1.036 ± 0.0058
40 | TGGGCTGTTT | 1.012 ± 0.01
41 | GGCATCGTCG | 0.97 ± 0.025
42 | CTGAGCTGCA | 1.12 ± 0.036
43 | TTCAAGGTCA | 1.02 ± 0.028
44 | ATTCGTCAAT | 1.18 ± 0.13
45 | CGAGTTAAAA | 1.002 ± 0.0069
46 | CGGGAGCTGT | 1.01 ± 0.072
47 | AAAAGGGCGG | 1.01 ± 0.023
48 | TTGATCTTGA | 0.955 ± 0.085
49 | TTTGTTTGGG | 0.998 ± 0.033
50 | GGGCATAGGT | 0.982 ± 0.018

Row | Sequence | switch fluorescence ratio
51 | GATGGGTAAA | 0.992 ± 0.029
52 | CCACCTGGCG | 1.29 ± 0.017
53 | CGAAATGTAA | 0.992 ± 0.024
54 | TCCATTTTTT | 0.992 ± 0.035
55 | AGAGAGTGAC | 0.981 ± 0.01
56 | TTAGCGGCTG | 0.9585 ± 0.0026
57 | TATTAGTCAG | 1 ± 0.023
58 | ATCTAGGTCA | 1.02 ± 0.037
59 | CTGACGGTAG | 1.03 ± 0.022
60 | TCTGGTTTGG | 1.03 ± 0.049
61 | TAGATTCTGT | 0.9951 ± 0.0032
62 | GGGGGACCCA | 0.982 ± 0.06
63 | GCATTAGGAC | 1.24 ± 0.018
64 | AGATAGGGAT | 1.04 ± 0.053
65 | ATGTAGTTGT | 0.979 ± 0.041
66 | AGAATATGTT | 0.983 ± 0.014
67 | GTTGGCAACA | 1.04 ± 0.056
68 | GGGGCTTTCG | 1 ± 0.072
69 | TGATTCTCGT | 1.02 ± 0.018
70 | AATGGGTAC | 1.015 ± 0.0059
71 | AATAGGAAGT | 1.011 ± 0.007
72 | GCAGATTTGG | 0.978 ± 0.026
73 | GCAGCTGGCA | 0.984 ± 0.017
74 | ATGTGGATTC | 1.02 ± 0.036
75 | TATGAGGGCA | 1.02 ± 0.013

Row | Sequence | switch fluorescence ratio
76 | TAACCTCGCG | 1.04 ± 0.02
77 | GGGTCTGGGG | 0.995 ± 0.022
78 | TGTTGGTTCG | 0.97 ± 0.062
79 | GACTTTTGTA | 0.9812 ± 0.0045
80 | GGGCAAGAAT | 0.997 ± 0.017
81 | CGCTTTAGTT | 0.986 ± 0.026
82 | CAAAACTACT | 1.06 ± 0.011
83 | TGGTTCTGAC | 1.03 ± 0.038
84 | TGAGTTTTAC | 1.04 ± 0.03
85 | GGTTGGTTGT | 1.15 ± 0.21
86 | TGGTTTGGCT | 1.03 ± 0.023
87 | CAAGTAGGGA | 1.01 ± 0.057
88 | TAATATTTTT | 1 ± 0.017
89 | GTGGTGTCGT | 0.984 ± 0.016
90 | TGTTTTAATG | 0.988 ± 0.011
91 | GGGTACTGTA | 1.09 ± 0.041
92 | ACGGGGCGTA | 0.98581 ± 0.00064
93 | AATTTCGGGG | 0.999 ± 0.017
94 | GGTAGTGCGT | 0.968 ± 0.043
95 | ATTAAGCTGT | 1.009 ± 0.01
96 | TGTCGTTCTT | 0.973 ± 0.013
97 | TTTCGTTTTA | 0.996 ± 0.033
98 | TACCAAAGGT | 1.02 ± 0.031
99 | TTTGGGTAAT | 1.21 ± 0.39
100 | TTTTTGAGAA | 0.983 ± 0.033

Row | Sequence | switch fluorescence ratio
101 | TTTAATTTAT | 1.09 ± 0.12
102 | CTTCTATGTT | 0.984 ± 0.002
103 | ATGGTTTATA | 0.977 ± 0.045
104 | TGCATGATCG | 1.02 ± 0.033
105 | TGCGTTAGCC | 1.035 ± 0.0025
106 | GGCCCGGGGT | 1.44 ± 0.37
107 | CTGTTGGAAG | 0.969 ± 0.012
108 | ACTGGGTTTC | 0.99 ± 0.054
109 | TTTTGAAGGG | 1 ± 0.021
110 | CGTGGTTGTC | 0.9871 ± 0.0066
111 | GCGATAATTT | 0.9975 ± 0.0076
112 | TCGGGATCCT | 1.35 ± 0.51
113 | CTTTTTAATG | 0.98 ± 0.028
114 | TTCTAGTTGA | 0.991 ± 0.022
115 | GGGGGATGGC | 0.975 ± 0.064
116 | ATTGATATTT | 0.998 ± 0.019
117 | CGCTAACTTG | 1.01 ± 0.047
118 | TTTGTGGAGC | 1.04 ± 0.071
119 | CATGTCACGG | 1.06 ± 0.039
120 | CGAACCTTCG | 2.35 ± 0.092
121 | CAATATGAAT | 1.02 ± 0.0057
122 | ATTCGTTTGC | 1 ± 0.057
123 | TACGAATAGA | 1.056 ± 0.0097
124 | GATAGTAATG | 1.01 ± 0.018
125 | CAAATAGGCT | 0.984 ± 0.028

Row | Sequence | switch fluorescence ratio
126 | TGTGGGGGGA | 0.983 ± 0.037
127 | ATATGCTAAG | 0.9935 ± 0.0099
128 | AGGGGTGTTT | 0.999 ± 0.039
129 | TTTGGACAAG | 1 ± 0.061
130 | GGAGGGTTAT | 0.995 ± 0.038
131 | TTGCGAGAGA | 0.993 ± 0.035
132 | GGGAGAAGCG | 0.982 ± 0.014
133 | TCGATTTTTT | 1.01 ± 0.028
134 | CGGAAAATTA | 1.015 ± 0.0067
135 | TCTGGAGAGG | 1.01 ± 0.034
136 | AAATGAGTGG | 0.9783 ± 0.006
137 | CCAATGGCAG | 1.155 ± 0.0045
138 | TTGATTTTGG | 0.988 ± 0.026
139 | CCGATAGCGT | 2.81 ± 0.45
140 | GATCCGAGAC | 1.516 ± 0.0088
141 | AGAGGGGGTG | 0.96 ± 0.013
142 | TTAAAAAGGT | 1 ± 0.021
143 | TTAGTAAAAT | 1.01 ± 0.017
144 | TAGAATTACT | 1.05 ± 0.056
145 | TGCGTGAGGG | 1.04 ± 0.016
146 | TCTAGCCGGT | 0.9878 ± 0.0085
147 | TTTCATGGGT | 1 ± 0.018
148 | CGTTTGGACG | 0.989 ± 0.079
149 | GGTGAAGGAT | 0.982 ± 0.026
150 | GTTGGTGACG | 1.048 ± 0.0055

Row | Sequence | switch fluorescence ratio
151 | ATAAAGGGCT | 0.988 ± 0.054
152 | TTCTTGAGGT | 0.9669 ± 0.0016
153 | ATTCATGATA | 0.975 ± 0.013
154 | TTATTTAGTT | 1.01 ± 0.017
155 | CGTATCTCTA | 0.989 ± 0.01
156 | TGTGGGGTTG | 0.994 ± 0.033
157 | CGTATAAATC | 1.01 ± 0.043
158 | TTTGATTTCG | 1.01 ± 0.024
159 | ATCCAGT | 1.036 ± 0.0033
160 | TATTGTGGCT | 0.9785 ± 0.0061
161 | AATTTGTGGA | 0.9855 ± 0.007
162 | GCTCGCCTGA | 0.995 ± 0.025
163 | CGTAATAGAT | 1.02 ± 0.026
164 | TTTTTGTGGA | 1.03 ± 0.019
165 | CTATGAATTT | 0.995 ± 0.011
166 | AAGGTCGTAT | 0.9922 ± 0.009
167 | ATTGAAGCTT | 1.009 ± 0.0089
168 | CATTGTAAGA | 0.962 ± 0.043
169 | GTGTAGGGGA | 1.0019 ± 0.00055
170 | TTTGGTCGGA | 1.019 ± 0.0039
171 | AGACTGAATT | 1.03 ± 0.02
172 | TTGGCTGGCT | 1.08 ± 0.071
173 | TCCATCTGCG | 1.097 ± 0.007
174 | GGGAGTTCGG | 0.9597 ± 0.0092
175 | TAAAAATCAT | 1.01 ± 0.034

Row | Sequence | switch fluorescence ratio
176 | AGTTTTGGGT | 0.967 ± 0.02
177 | TATCAGAGGT | 1.03 ± 0.036
178 | TTTGATCCTG | 0.9711 ± 0.0081
179 | GTGTTTTCGG | 0.985 ± 0.016
180 | CGGGGACAGA | 0.984 ± 0.041
181 | TCCCGGCAGA | 0.997 ± 0.013
182 | AAGAGGTGGA | 1.028 ± 0.0098
183 | AAAACACTGG | 1.06 ± 0.053
184 | AAAACTTTTA | 1.02 ± 0.04
185 | GAAGGGGCAA | 1.18 ± 0.13
186 | TTCCTAGGGA | 0.994 ± 0.046
187 | GAACATGCAG | 1.01 ± 0.03
188 | ACTGTGGAAT | 1.07 ± 0.022
189 | AGCTTGAGGT | 0.9941 ± 0.0019
190 | GTGTTCAGGG | 1.02 ± 0.021
191 | TTGGGAGGGC | 1.18 ± 0.27
192 | GAATTAGAAA | 0.999 ± 0.014
193 | TAGGTATGGG | 0.9955 ± 0.002
194 | AATTTAGGTT | 0.993 ± 0.03
195 | TGGGAGTTTT | 1.02 ± 0.047
196 | GGTACTTGGG | 0.984 ± 0.033
197 | CGGTTTGGCA | 0.992 ± 0.014
198 | AGGGGTGGAG | 1.02 ± 0.006
199 | TAAGACGGGG | 1.01 ± 0.034
200 | ATTGAGGGGG | 1.04 ± 0.052
